According to article PMC4780118, “Mechanisms involved in xyloglucan catabolism by the cellulosome-producing bacterium Ruminiclostridium cellulolyticum” (Scientific Reports, 2016):

Experiments:
SBP2458 = molecular target: T1, SBP2458 (Ruminiclostridium cellulolyticum, UniProt B8I622); test: isothermal titration calorimetry; type: binding; conditions: 150 mM NaCl, 25 mM HEPES pH 7.0, 20 °C; single-site model
T1 construct: gene Ccel_2458

purified protein [1] = substrate: O=[N+]([O-])c1ccc(O[C@@H]2O[C@H](CO)[C@H](O)[C@H](O)[C@H]2O)cc1; test: purified protein; conditions: assay as in ref. 19
pNP release kinetics = substrate: O=[N+]([O-])c1ccc(O[C@H]2OC[C@@H](O)[C@H](O)[C@H]2O)cc1; test: pNP release kinetics; type: biochemical, Ruminiclostridium cellulolyticum; conditions: assay as in ref. 19
purified protein [2] = substrate: O=[N+]([O-])c1ccc(O[C@@H]2O[C@H](CO)[C@@H](O)[C@H](O)[C@H]2O)cc1; test: purified protein; conditions: assay as in ref. 19

T1 sequence (B8I622 entry or part of it): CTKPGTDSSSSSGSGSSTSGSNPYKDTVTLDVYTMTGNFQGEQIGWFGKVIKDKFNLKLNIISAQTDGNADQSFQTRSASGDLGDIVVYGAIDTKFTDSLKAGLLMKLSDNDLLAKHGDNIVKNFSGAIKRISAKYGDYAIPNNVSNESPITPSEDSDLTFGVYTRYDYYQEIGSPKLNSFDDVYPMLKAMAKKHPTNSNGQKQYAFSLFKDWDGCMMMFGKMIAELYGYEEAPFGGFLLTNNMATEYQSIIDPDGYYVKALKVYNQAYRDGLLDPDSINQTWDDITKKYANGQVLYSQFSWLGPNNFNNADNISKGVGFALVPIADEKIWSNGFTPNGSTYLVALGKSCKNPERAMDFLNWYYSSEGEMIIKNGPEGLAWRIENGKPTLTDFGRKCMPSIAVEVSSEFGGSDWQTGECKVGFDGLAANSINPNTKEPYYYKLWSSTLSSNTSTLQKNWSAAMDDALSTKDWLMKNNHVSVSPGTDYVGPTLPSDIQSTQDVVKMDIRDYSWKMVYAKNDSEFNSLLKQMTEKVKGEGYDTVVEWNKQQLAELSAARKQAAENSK

In the case of OC[C@H]1OC(O)[C@H](O)[C@@H](O)[C@@H]1O[C@@H]1O[C@H](CO[C@H]2OC[C@@H](O)[C@H](O)[C@H]2O)[C@@H](O[C@@H]2O[C@H](CO[C@H]3OC[C@@H](O)[C@H](O)[C@H]3O)[C@@H](O[C@@H]3O[C@H](CO[C@H]4OC[C@@H](O)[C@H](O)[C@H]4O)[C@@H](O)[C@H](O)[C@H]3O)[C@H](O)[C@H]2O)[C@H](O)[C@H]1O (stereo partly shown) [XXXG], the Kd (SBP2458) is reported as 3.65 ± 1.1 nM.

B1: Gal42A (Ruminiclostridium cellulolyticum H10) (protein)
chain: MDKYMPIGMNFPHILHGGDYNPDQWLKAPKILDEDFRLMKLAHCNVMTIGIFSWMALEPEEGKFDFSWLDEIMDKLSKNEMTAILATPSGAKPSWMSQKYPEILRTQADRLKDFHGGRHNHCLTSPIYRKKVSQINRLLAERYARHPALILWHISNEYSGECHCPLCQEAFRSFLMKKYEGDLERLNHEWWTGFWAHRYTDWSQIESPSPRGEHETHGLILDWKRFVSHQTIDFLKNEIKPLRELTPEISVTTNLMGTFPGLEYRELSKEIDVVSWDNYPTWHTSEQPDWKIGIRTSFVHDINRSLKQGKPFMMMESTPSTVNWQKVNKLKRPGMHMLSSLQAVAHGSDTVQYFQWRKSRGSFEKFHGAVVDHVGHENTRVFREVAQVGQVLEKLDEVVGTTVHPKVAIIFDWENRWAMEEAQALARDRIKYEETCVAHYTAFWKRGVSVDIIGARDNLSQYKLVIAPMLYLTHPGVGERIETFVNEGGTFVATYWSGIVNENDLCHLGGFPGPLRAVTGIWSEEIDTMHPDENNSLILSDNSLGLSGTYRVQDFCDLVHAESAEVLARYGEEFYAGRPALTVNRFGKGNAYYMAARTGEDFLEDFYNALMKKLTLSRTLDVELPCGVTSQLRTDGQNRYIFLMNFNHEKQDIQLTKGLTDMFTGEIRQGMLELAPFDVKVLKAKI
With B1 the Km (purified protein [1]) was 1.56 ± 0.3 mM, the kcat (purified protein [1]) was 4,800 ± 320 μmol product per μmol enzyme × min^−1 and the kcat/Km (purified protein [1]) was 51300 M⁻¹ s⁻¹.

B2: Xyl31A (Ruminiclostridium cellulolyticum H10) (protein)
chain: MKFLNGYWMSKEGYSLYYPSEAYRIEKSGDVLRIFAPCNQINHRGDTLGGPALTIELSSPAEDVIRISVYHYKGVKKAGPYFELNTPGISPSISEDEDAVWFGSGQIKARIDKKTYNIDYYRGDERLTGSGWRHLAYIKHESGQTYMREQLDLDVGECVYGLGERFTPFVKNGQTVDIWNQDGGTCTEQSYKNIPFYITNRGYGVFVNDPGLVSFEICSEVVSRSQFSVEGESLDYFIIGGSDCKEVISNYTALTGRPAIPPAWSFGLWLSTSFTTNYDEKTVTSFINGMSKRRIPLSVFHFDCFWMKEFNWCDFIWDKDVFPDPKKMLSKLKEKGLHICVWINSYVSQESVLFDEGMQKGYFIHKKNGSVWQWDMWQPGMAIVDFTNPDACNWFSQKLLNLVDMGVDCFKTDFGERIPTEDVVYYDGSDPVKMHNFYTYLYNRTVFDTLKQVGKEAVVFARSATAGSQKFPVHWGGDCTADFSSMAESLRGGLSLGLCGFGFWSHDIGGFEQTATADVYKRWLAFGMLSSHSRLHGSTGYRVPWLYDEEAVDVLRFFANLKCRLMPYIYKTAIQASQQGLPSARAMFVEFPEDPACTTLDRQYMLGDSLLVAPVFSKSGLVEYYLPLGEWYNLLTGEIVTGGSYRKEKHNYMSLPLFVRPGSLLAIGDNEEETVYEYAQGVRLLLTPLADGYEASTSVYEKDGHEALNVTVNRKESDITVIAEGDGKPWSIKLCGITAKGCTGGTIEKEQDGIVFMPGNSTGSYTVRIL
notes: C-terminal His6 (pET28a); E. coli BL21(DE3)
For B2, the Km (pNP release kinetics) was 1.29 ± 0.15 mM, the kcat (pNP release kinetics) was 12 ± 1.2 μmol product per μmol enzyme × min^−1 and the kcat/Km (pNP release kinetics) was 155 M⁻¹ s⁻¹.

B3: Glu3A (Ruminiclostridium cellulolyticum H10) (protein)
chain: MQYDQIDKKIDELLSMMTLEEKAGMCHGAGLFRTAGVPRLGIPPLVFSDGPMGIRNEFADDNWNTVGGNTDFVTYLPANTALAATFNRTLAESLGEVLGCEARGRGKDVILAPGVNIIRTPLCGRNYEYFSEDPILTAELAASFIKGVQRFDVAACVKHFAANNQETERLAVSAEVDELTLRELYFPAFEASVRAGVLTVMTAYNRLNGTFCSHSRQLITEILREEWGFNGVVVSDWGAVHDTESPAIAGLDIEMNVTSNFNEYFFAKPLINAIKDGKIPERMLDDKVRRILRLMFRLNMFSKDRKRGGFNLPQHQQAVLDAAKESFVLLKNDREVLPLNADGIKTVAVIGSNADKKHSSGGDSAAVKALYEVTPLSGIVMRLASGAKVTYYPGCPDETHYKEEFHIPSNADEKTRADIEEKARAADEDYRKIQMRLEDEAIQAAKTADAVIFIGGNGHEQESEGRDRPDMALPYEQDKLLSRVLDANPNTVVVIISGSPVNMSGWIDKAPTVMQGFFSGMHGGTALAAVLFGDENPSGHLPFTIPLKEEETGASALGEYPGGETVCYSEGLFVGYRYHDAFNIPPLFPFGYGLSYTTFSLANESFRRLPCVGTEYEIHVDITNSGNRPGAQSVQLYVEPEKKDGSPIRTLKGFEKTYLNPDETKTITFKLDERTFSEFRPHEGWVFVPGNYTIHIGTSSRELPIAIALAL
In the case of B3, the Km (purified protein [2]) is reported as 44.6 ± 19 mM, the kcat (purified protein [2]) is reported as 1,350 ± 164 μmol product per μmol enzyme × min^−1 and the kcat/Km (purified protein [2]) is reported as 500 M⁻¹ s⁻¹.
